Measurements published in patent publication US20120114652A1 (AbbVie / Abbott, published 2012).

T1: mouse PAI-1 (mouse, UniProt P22777 24-401)
T1 sequence: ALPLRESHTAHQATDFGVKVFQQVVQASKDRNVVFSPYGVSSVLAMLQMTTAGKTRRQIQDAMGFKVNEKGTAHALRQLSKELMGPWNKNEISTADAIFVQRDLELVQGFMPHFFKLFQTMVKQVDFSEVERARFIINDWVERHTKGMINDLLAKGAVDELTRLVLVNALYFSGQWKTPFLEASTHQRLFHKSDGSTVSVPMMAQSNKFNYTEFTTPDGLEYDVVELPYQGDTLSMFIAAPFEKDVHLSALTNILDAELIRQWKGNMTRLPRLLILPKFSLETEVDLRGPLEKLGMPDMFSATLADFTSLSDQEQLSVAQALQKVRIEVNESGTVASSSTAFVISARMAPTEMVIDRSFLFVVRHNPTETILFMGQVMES

T2: rabbit PAI-1 (rabbit)
T2 chain: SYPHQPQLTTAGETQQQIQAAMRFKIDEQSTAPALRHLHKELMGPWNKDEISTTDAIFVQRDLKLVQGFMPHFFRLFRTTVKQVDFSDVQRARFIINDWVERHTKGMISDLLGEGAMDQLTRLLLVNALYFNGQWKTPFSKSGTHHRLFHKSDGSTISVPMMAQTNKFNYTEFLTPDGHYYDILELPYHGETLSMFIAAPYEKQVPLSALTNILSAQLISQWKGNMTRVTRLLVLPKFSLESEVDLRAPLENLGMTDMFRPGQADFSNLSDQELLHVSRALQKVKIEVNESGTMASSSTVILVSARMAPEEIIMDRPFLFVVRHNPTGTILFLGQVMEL

B1: rat PAI-1 (other)
chain: SPLPESHTAQQATNFGVKVFQHVVQASKDRNVVFSPYGVSSVLAMLQLTTAGKTRQQIQDAMGFNISERGTAPALRKLSKELMGSWNKNEISTADAIFVQRDLELVQGFMPHFFKLFRTTVKQVDFSEVERARFIINDWVERHTKGMISDLLAKGAVNELTRLVLVNALYFNGQWKTPFLEASTHQRLFHKSDGSTISVPMMAQNNKFNYTEFTTPDGHEYDILELPYHGETLSMFIAAPFEKDVPLSAITNILDAELIRQWKSNMTRLPRLLILPKFSLETEVDLRGPLEKLGMTDIFSSTQADFTSLSDQEQLSVAQALQKVKIEVNESGTVASSSTAILVSARMAPTEMVLDRSFLFVVRHNPTETILFMGQLMEP
notes: bought (US Biological)

How the values were obtained:
PICK167_A01 IgG1 = test: competition ELISA (DELFIA): PICK167_A01 IgG1 coated on the plate, binding of biotinylated human PAI-1 detected with streptavidin-Eu3+ in the presence of a titration of the unlabelled test antigen (the varied molecule)
[1] = molecular target: T3, PICK167_A01-fgl IgG1 (CAT-1001); test: competition ELISA (DELFIA): PICK167_A01-fgl IgG1 (CAT-1001) coated on the plate, binding of biotinylated human PAI-1 detected with streptavidin-Eu3+ in the presence of a titration of the unlabelled test antigen (the varied molecule)
T3 construct: fully germlined variant, made as an IgG1 only; also called PICK67A01-fgl

rat PAI-1 [2] = molecular target: B1; test: cell-based or functional assay
cynomolgus PAI-1 [3] = molecular target: T4, cynomolgus PAI-1 (cynomolgus, UniProt P05121 24-402 (human entry), limits assumed); test: cell-based or functional assay
[4] = molecular target: T5, human PAI-1, active, wild-type, non-glycosylated (E. coli-derived) (human, UniProt P05121 24-402); test: cell-based or functional assay
mouse PAI-1 [5] = molecular target: T1, mouse PAI-1; test: cell-based or functional assay
[6] = molecular target: glycosylated active human PAI-1 produced by CHO cells (human, UniProt P05121 24-402, N-glycosylated (CHO-produced)); test: cell-based or functional assay
[7] = molecular target: T5, human PAI-1, active, wild-type, …; test: cell-based or functional assay; remark: listed apart in the source
mouse PAI-1 [8] = molecular target: T1, mouse PAI-1; test: cell-based or functional assay; remark: listed apart in the source
cynomolgus PAI-1 [9] = molecular target: T4, cynomolgus PAI-1; test: cell-based or functional assay; remark: listed apart in the source
[10] = molecular target: T5, human PAI-1, active, wild-type, …; test: cell-based or functional assay; remark: listed apart in the source
rat PAI-1 [11] = molecular target: B1; test: cell-based or functional assay; remark: listed apart in the source
rabbit PAI-1 = molecular target: T2, rabbit PAI-1; test: competition ELISA (DELFIA), IgG coated, competitor titrated against biotinylated active human PAI-1
rat PAI-1 [12] = molecular target: B1; test: cell-based or functional assay; remark: listed apart in the source

IC50 chromogenic (rat PAI-1 [2]) [nM]	IC50 ratio rat/human (rat PAI-1 [2])	IC50 chromogenic (cynomolgus PAI-1 [3]) [nM]	IC50 chromogenic [4] [nM]	IC50 chromogenic (mouse PAI-1 [5]) [nM]	IC50 ratio mouse/human (mouse PAI-1 [5])	IC50 HT-1080 Exo PAI-1 [7] [nM]	IC50 HT-1080 Exo PAI-1 (mouse PAI-1 [8]) [nM]	IC50 HT-1080 Exo PAI-1 (rat PAI-1 [11]) [nM]	Binder	other results
									B1	IC50 (read off the curve) (PICK167_A01 IgG1): ~2 nM; IC50 (read off the curve) [1]: ~1 nM
99.3	66.2	0.7	1.5	30	20	11.2	15.8		Antibody 01, IgG1, not germlined (antibody, V domains shown) VH: QVQLVQSGAEVKKPGSSVKVSCKASGGTFSSYAISWVRQAPGQGLEWMGGIIPIFGTANYAQKFQGRVTITADESTSTAYMELSSLRSEDTAVYYCAREKRQWLEGHFDYWGRGTLVTVSS VL: DIQMTQSPSTLSASVGDRVTITCRASEGIYRSLAWYQQKPGKAPKLLIYKASSLASGVPSRFSGSGSGTEFTLTISSLQPDDFATYYCQQYSNYPLTFGGGTKVEIK	IC50 ratio cyno/human (cynomolgus PAI-1 [3]): 0.4; IC50 chromogenic, hu glyco [6]: 1.7 nM
5.6				4.3		16.9	17.6	52.6	Antibody 16, scFv (scFv, V domains shown) VH: QVQLVQSGAEVKKPGSSVKVSCKASGGTFSSYAISWVRQAPGQGLEWMGGIIPTFGTANYAQKFQGRVTITADESTSTAYMELSSLRSEDTAVYYCAREKRQWLEGHFDYWGRGTLVTVSS VL: DIQMTQSPSTLSASVGDRVTITCRASESIYHSLAWYQQKPGKAPKLLIYKASSLASGVPSRFSGSRSGTEFTLTISSLQPDDFATYYCQQYSNYPLTFGGGTKVEIK	IC50 chromogenic (FIG. 2b) (cynomolgus PAI-1 [9]): 0.8 nM; IC50 chromogenic (FIG. 2a) [10]: 3.6 nM
64.2	8.9	2.2	7.2	66.9	9.3	36	37	57	Antibody 15, scFv (scFv, V domains shown) VH: QVQLQQSGAEVKKPGSSVKVSCKASGGTFSSYAISWVRQAPGQGLEWMGGIIPTFGTANYAQKFQGRVTITADESTSTAYMELSGLRSEDTAVYYCAREKRQWLEGHFDYWGRGTPVTVSS VL: DIQMAQSPSFLSASIGDRVTITCRASEGIYHNLAWYQQKPGKAPKLLIYRASSLASGAPSRFSGSGSGTDFTLTISSLQPDDFATYYCQQYSNYPLTFGGGTKLEIR	IC50 ratio cyno/human (cynomolgus PAI-1 [3]): 0.3
		1.3		4.9		19.1	18.1	42.4	Antibody 20, scFv (scFv, V domains shown) VH: QVQLQQSGAEVKKPGSSVKVSCKASGGTFSSYAISWVRQAPGQGLEWMGGIIPTFGTANYAQKFQGRVTITADESTSTAYMELSSLRSEDTAVYYCAREKRQWLEGHFDYWGRGTLVTVSS VL: DIQMTQSPSTLSASVGDRVTITCRASEGIYHELAWYQQKPGKAPKLLIYRASSLASGVPSRFSGSRSGTEFTLTISSLQPDDFATYYCQQYSDYPLTFGGGTKVEIK	
49.8		2.2				18.8	16.4	33.8	Antibody 27, scFv (scFv, V domains shown) VH: QVQLQQSGAEVKKPGSSVKVSCKASGGAFSSYAISWVRQAPGQGLEWMGGIIPTFGTANYAQKFQGRVTITADESTSTAYMELSGLRSEDTAVYYCAREKRQWLEGHFDYWGRGTPVTVSS VL: DIQMTQSPSFLSASIGDRVTITCRASEGIYHNLAWYQQKPGKAPKLLIYRASSLASGAPSRFSGSGSGTDFTLTISSLQPDDFATYYCQQYSNYPLTFGGGTKLEIK	
510	317		1.6	167	104	8.7	10.9		Antibody 02, IgG1, not germlined (antibody, V domains shown) VH: QVQLVQSGAEVKKPGSSVKVSCKASGGTFSSYAISWVRQAPGQGLEWMGGIIPTFGTANYAQKFQGRVTITADESTSTAYMELSSLRSEDTAVYYCAREKRQWLEGHFDYWGRGTLVTVSS VL: DIQMTQSPSTLSASVGDRVTITCRASEGIYHSLAWYQQKPGKAPKLLIYKASSLASGVPSRFSGSGSGTEFTLTISSLQPDDFATYYCQQYSDYPLTFGGGTKVEIK	IC50 chromogenic, hu glyco [6]: 1.5 nM
									Antibody 02, IgG4, not germlined (antibody, V domains shown, whole IgG4; also called Ab 02) VH: QVQLVQSGAEVKKPGSSVKVSCKASGGTFSSYAISWVRQAPGQGLEWMGGIIPTFGTANYAQKFQGRVTITADESTSTAYMELSSLRSEDTAVYYCAREKRQWLEGHFDYWGRGTLVTVSS VL: DIQMTQSPSTLSASVGDRVTITCRASEGIYHSLAWYQQKPGKAPKLLIYKASSLASGVPSRFSGSGSGTEFTLTISSLQPDDFATYYCQQYSDYPLTFGGGTKVEIK	IC50 ratio rabbit/wt (rabbit PAI-1): 4.8
238	190	0.5	1.3	319	255			37	Antibody 18, scFv (scFv, V domains shown) VH: QVQLQQSGAEVKKPGSSVKVSCKASGGTFSSYAISWVRQAPGQGLEWMGGIIPTFGTANYAQKLQGRVTITADESTSTAYMELSGLRSEDTAVYYCAREKRQWLEGHFDYWGRGTPVTVSS VL: DIQMTQSPSFLSASIGDRVTITCRASEGIYHALAWYQQKPGKAPKLLIYRASSLASGAPSRFSGSGSGTDFTLTISSLQPDDFATYYCQQYSNYPLTFGGGTKLEIK	IC50 ratio cyno/human (cynomolgus PAI-1 [3]): 0.4; fold higher IC50 in the rat chromogenic assay, against the human assay (rat PAI-1 [12]): ~180 fold
29.7		0.7				23	21	52.7	Antibody 09, scFv (scFv, V domains shown) VH: QVQLQQSGAEVKKPGSSVKVSCKASGGTFSSYAISWVRQAPGQGLEWMGGIIPAFDTANYAQKFQGRVTITADESTSTAYMELSGLRSEDTAVYYCAREKRQWLEGHFDYWGRGTPVTVSS VL: DIQMTQSPSFLSASIGDRVTITCQASEGIYHNLAWYQQKPGKAPKLLIYRASSLASGAPSRFSGSGSGTDFTLTISSLQPDDFATYYCQQYSNYPLTFGGGTKLEIK	
									Antibody 01, IgG4, not germlined (antibody, V domains shown, whole IgG4; also called Ab 01) VH: QVQLVQSGAEVKKPGSSVKVSCKASGGTFSSYAISWVRQAPGQGLEWMGGIIPIFGTANYAQKFQGRVTITADESTSTAYMELSSLRSEDTAVYYCAREKRQWLEGHFDYWGRGTLVTVSS VL: DIQMTQSPSTLSASVGDRVTITCRASEGIYRSLAWYQQKPGKAPKLLIYKASSLASGVPSRFSGSGSGTEFTLTISSLQPDDFATYYCQQYSNYPLTFGGGTKVEIK	IC50 ratio rabbit/wt (rabbit PAI-1): 9
